Laboratory results: article PMC10626209

Tests used:
[1] = biological target: GFP-tagged SHROOM2 ASD2 domain (mouse protein 1,178–1,488 aa) (mouse); test: SPR
[2] = biological target: preformed SHROOM2:ROCK1 complex (mouse | human) (UniProt Q13464); test: SPR

Kd [1]	fold higher affinity than for the single domain (printed: ROCK1 alone) [2]	Substance
1000 nM		GST-tagged ROCK1 SBD domain (834–913 aa) (from UniProt Q13464 834-913) (domain or fragment)
960 nM	5 fold	GST-tagged SCRIB C-terminal fragment (1,478–1,630) (from UniProt Q14160 1478-1630) (domain or fragment)
